Reference: patent US20090155873A1, “BIOFUEL PRODUCTION” (BIO ARCHITECTURE LAB, INC., priority 2007, published 2009)

Experiments:
[1] = Kinetic testing of oxidation and reduction reactions with 2ADH-16; assay type: biochemical; details: 0.04 mg/mL enzyme, pH 6.5(red) or 9.0(ox), 25 C, FIGS. 35 and 36
Protocol: Similar to above, kinetic testing for both oxidation and reduction reactions was performed on various substrates using 2ADH-16. The conditions for these studies were as follows: 0.04 mg/mL enzyme, 0.25 mg/mL cofactor, 20 mM Tris HCl Buffer pH 6.5(red) or 9.0(ox), T=25 C, 100 uL total volume was used.

[2] = NADH Production Assay (oxidation of 4-octanol); assay type: biochemical; details: NAD+, 30° C., FIG. 30A
Protocol: Various secondary alcohol dehydrogenases (2ADHs) were isolated from Pseudomonas putida KT2440, Pseudomonas fluorescens Pf-5, and Klebsiella pneumoniae MGH 78578. All vectors were transformed in BL21(DE3) competent cells and expression of the genes encoding the proteins of interest was induced with IPTG (via the T7 promoter). The cells were lysed, proteins were extracted and then purified on Ni-NTA columns. Final protein concentration in the Ni-NTA eluate was diluted to 0.15 mg/mL prior to assays.
[…] consumption and production assays were performed using a THERMOmax microplate reader in the kinetic mode, monitoring the NADPH absorbance peak at 340 nm until the reaction reached equilibrium. […] These reaction conditions are found in Table 4 below.

[3] = TBA assay for secreted alginate lyase; assay type: cell-based; details: BL21 cells, LB+2% alginate+0.1 mM IPTG, overnight culture media, FIG. 47
Protocol: The Vs24254 (SEQ ID NO: 32) region of Vibro spendidus encodes a functional external alginate lyase. BL21 cells expressing Vs24254 from the pET28 vector were capable of breaking down alginate in the growth medium. […] This assay was performed by spinning down an overnight culture grown on the above mentioned media. The media was then mixed in a 1:1 ratio with 0.8% thiobarbituric acid (TBA), heated for 10 min at 99 degrees Celsius, and assayed for pink coloration. […] Wildtype E. coli cells not expressing any recombinant proteins show the same coloration as the negative control Vs24259 (data not shown).

B1: 2ADH-16: secondary alcohol dehydrogenase isolated from Klebsiella pneumoniae subsp. pneumoniae MGH 78578, SEQ ID NO:138 (protein)
chain: MTAFHNKSVLVLGGSRGIGAAIVRRFVADGASVVFSYSGSPEAAERLAAETGSTAVQADSADRDAVISLVRDSGPLDVLVVNAGIALFGDALEQDSDAIDRLFHINIHAPYHASVEAARRMPEGGRIIVIGSVNGDRMPLPGMAAYALSKSALQGLARGLARDFGPRGITVNVVQPGPIDTDANPENGPMKELMHSFMAIKRHGRPEEVAGMVAWLAGPEASFVTGAMHTIDGAFGA
modifications: Klebsiella pneumoniae subsp. pneumoniae MGH78578
oxidation and reduction of various substrates [1]: capable of catalyzing both the oxidation and reduction of a wide variety of substrates

B2: 2ADH-2: secondary alcohol dehydrogenase isolated from Pseudomonas putida KT2440, SEQ ID NO:112 (protein)
chain: MSMTFSGQVALVTGAGAGIGRATALAFAHEGMKVVVADLDPVGGEATVAQIHAAGGEALFIACDVTRDAEVRQLHERLMAAYGRLDYAFNNAGIEIEQHRLAEGSEAEFDAIMGVNVKGVWLCMKYQLPLLLAQGGGAIVNTASVAGLGAAPKMSIYSASKHAVIGLTKSAAIEYAKKGIRVNAVCPAVIDTDMFRRAYQADPRKAEFAAAMHPVGRIGKVEEIASAVLYLCSDGAAFTTGHCLTVDGGATAI
modifications: Pseudomonas putida KT2440
oxidation of 4-octanol measured by NADH production [2]: catalyzes the oxidation of 4-octanol in the presence of NAD+

B3: Vs24254: functional external alginate lyase of Vibrio splendidus, SEQ ID NO:32 (protein, listed as Vibrio splendidus)
chain: MNKPIFVVVLASLTYGCGGSSSSDSSDPSDTNNSGASYGVVAPYDIAKYQNILSSSDLQVSDPNGEEGNKTSEVKDGNFDGYVSDYFYADEETENLIFKMANYKMRSEVREGENFDINEAGVRRSLHAEISLPDIEHVMASSPADHDEVTVLQIHNKGTDESGTGYIPHPLLRVVWEQERDGLTGHYWAVMKNNAIDCSSAADSSDCYATSYNRYDLGEADLDNFTKFDLSVYENTLSIKVNDEVKVDEDITYWQHLLSYFKAGIYNQFENGEATAHFQALRYTTTQVNGSNDWDINDWKLTIPASKDTWYGSGGDSAAELEPERCESSKDLLANDSDVYDSDIGLSYFNTDEGRVHFRADMGYGTSTENSSYIRSELRELYQSSVQPDCSTSDEDTSWYLDDTRTNATSHELTASLRIEDYPNINNQDPKVVLGQIHGWKINQALVKLLWEGESKPVRVILNSDFERNNQDCNHCDPFSVELGTYSASEEWRYTIRANQDGIYLATHDLDGTNTVSHLIPWGQDYTDKDGDTVSLTSDWTSTDIAFYFKAGIYPQFKPDSDYAGEVFDVSFSSLRAEHN
TBA assay result (cleavage of alginate in growth medium) [3]: positive TBA assay result of pink color

B4: Vs24259: putative protein of Vibrio splendidus similar to an alginate lyase, SEQ ID NO:34; negative control (protein, listed as Vibrio splendidus)
chain: MKQITLKTLLASSILLAVGCASTSTPTADFPNNKETGEALLTPVAVSASSHDGNGPDRLVDQDLTTRWSSAGDGEWATLDYGSVQEFDAVQASFSKGNQRQSKFDIQVSVDGESWTTVLENQLSSGKAIGLERFQFEPVVQARYVRYVGHGNTKNGWNSVTGLAAVNCSINACPASHIITSDVVAAEAVIIAEMKAAEKARKDARKDLRSGNFGVAAVYPCETTVECDTRSALPVPTGLPATPVAGNSPSENFDMTHWYLSQPFDHDKNGKPDDVSEWNLANGYQHPEIFYTADDGGLVFKAYVKGVRTSKNTKYARTELREMMRRGDQSISTKGVNKNNWVFSSAPESDLESAAGIDGVLEATLKIDHATTTGNANEVGRFIIGQIHDQNDEPIRLYYRKLPNQETGAVYFAHESQDATKEDFYPLVGDMTAEVGDDGIALGEVFSYRIDVKGNTMTVTLIREGKDDVVQVVDMSNSGYDAGGKYMYFKAGVYNQNISGDLDDYSQATFYQLDVSHDQYKK
TBA assay result (cleavage of alginate in growth medium) [3]: little or no cleavage of the alginate polymer has occurred
